Measured values from patent US20210017264A1 (SHANGHAI YILE BIOTECHNOLOGY, published 2021).

Biological target: T1, human proBDNF protein (prokaryotically expressed, Example 1) (human, UniProt P23560 19-247)
T1 construct: Vector-derived residues or tags are not described; also called human proBDNF antigen; recombinant human proBDNF
T1 sequence (looked up): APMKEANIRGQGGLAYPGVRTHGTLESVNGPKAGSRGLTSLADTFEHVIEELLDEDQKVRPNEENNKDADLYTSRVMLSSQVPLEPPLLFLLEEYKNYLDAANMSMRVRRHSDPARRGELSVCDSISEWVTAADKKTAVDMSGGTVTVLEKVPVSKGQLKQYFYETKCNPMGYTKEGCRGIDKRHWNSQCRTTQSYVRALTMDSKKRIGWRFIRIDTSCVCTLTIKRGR
Test: SPR, Biacore T200; human proBDNF coated directly on the chip (~500 RU); 2B11 injected at 10-160 nM, 25 C; 1:1 Langmuir model
Method: Binding affinity of 2B11 against recombinant human proBDNF was measured by Surface Plasmon resonance (SPR) using Biacore T200™. 1×HBS-EP+ buffer was used as running buffer. Recombinant human proBDNF was directly coated on CMS biosensor chip to achieve approximately 500 response units (RU). For kinetics measurements, two-fold serial dilutions (10 nM to 160 nM) were injected at 25° C. with a flow rate of 30u1/min. Association rate (Kₐ) and dissociation rate (Kd) were calculated using a simple one to one Langmuir binding model (BIAcore Evaluation software version 3.2). The equilibrium dissociation constant (kD) was calculated as the ratio Kd/Kₐ. The binding affinity of 2B11 to human proBDNF is reported below: […]

- Kd: 4.04 nM
- koff: 0.00116 s⁻¹
- kon: 288000 M⁻¹ s⁻¹
B1: anti-proBDNF monoclonal antibody 2B11 (antibody, human IgG1, kappa, V domains shown)
VH: EVKVVESGGGLVQPGGSLRLSCATSGFTFTDYYMSWVRQPPGKALEWLGFIRNKANGYTTEYSSSVKGRFTISRDNSQSILYLQMNTLRAEDSATYYCAITMDYWGQGTSVTVSS
VL: DIQMTQSPASLSASVGETVTITCRASGNIHNYLAWYQKKQGKSPHLLVYNAQTLADGVPSRFSGSASGTQYSLKIDSLQPEDFGSYYCQHFWSTPFTFGSGTKLEIKR
notes: also called murine monoclonal antibody 2B11; antibody secreted from clone 2B11
